# Patent US20240287172A1 (SCIRHOM, published 2024)
# Positions count from the first letter of the chain named.
# T1: hiR2-FL-A560S-T7 (human, UniProt Q6PJF5 1-856)
# T1 sequence: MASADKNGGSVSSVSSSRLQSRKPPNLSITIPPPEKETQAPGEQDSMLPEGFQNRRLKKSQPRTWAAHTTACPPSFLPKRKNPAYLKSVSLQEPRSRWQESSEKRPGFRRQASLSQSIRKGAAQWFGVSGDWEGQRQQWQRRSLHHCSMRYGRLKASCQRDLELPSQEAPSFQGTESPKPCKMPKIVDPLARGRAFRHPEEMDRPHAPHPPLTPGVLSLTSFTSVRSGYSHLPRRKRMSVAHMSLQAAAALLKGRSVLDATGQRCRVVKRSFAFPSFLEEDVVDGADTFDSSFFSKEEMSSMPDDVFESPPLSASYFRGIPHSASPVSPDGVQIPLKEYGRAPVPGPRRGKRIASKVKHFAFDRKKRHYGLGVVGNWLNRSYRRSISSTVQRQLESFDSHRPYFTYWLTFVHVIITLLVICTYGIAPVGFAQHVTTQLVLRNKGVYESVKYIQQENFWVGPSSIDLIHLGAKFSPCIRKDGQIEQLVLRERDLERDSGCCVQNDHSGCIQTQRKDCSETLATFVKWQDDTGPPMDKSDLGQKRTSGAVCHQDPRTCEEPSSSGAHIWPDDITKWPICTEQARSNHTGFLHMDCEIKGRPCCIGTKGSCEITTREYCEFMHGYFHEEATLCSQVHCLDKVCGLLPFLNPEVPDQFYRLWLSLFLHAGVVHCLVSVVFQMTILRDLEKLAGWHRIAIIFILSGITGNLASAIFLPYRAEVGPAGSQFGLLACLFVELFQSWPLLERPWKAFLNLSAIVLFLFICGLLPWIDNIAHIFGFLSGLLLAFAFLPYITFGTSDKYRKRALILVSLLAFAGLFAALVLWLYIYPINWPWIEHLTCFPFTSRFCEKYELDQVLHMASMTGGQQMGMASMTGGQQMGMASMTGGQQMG
# T2: hiR2-FL-K536A-T7 (human, UniProt Q6PJF5 1-856)
# T2 construct: on MEF-DKO cells
# T2 sequence: T1 sequence with K536A, S560A
# B1: antibody 48 (antibody, V domains shown)
# VH: QVQLQQSGTELVRPGTSVKVSCKASGYAFTNYLIEWVKQRPGQGLEWIGVINPGSGFTKYNEKFKGKATLTADKSSSTVYMHLSSLTSEDSAVYFCARGLYRAMDYWGQGTSVTVSS
# VL: DIQMTQSPASQSASLGESVTITCLASQTIATWLAWYQQKPGKSPQLLIYGATTLADGVPSRFSGGGSGTKFSFKISSLQAEDFVSYYCQQLYSTPYTFGGGTKLEIK
# notes: mouse IgG, kappa light chain; also called clone #48; purified antibody 48
# B2: antibody 50 (antibody, V domains shown)
# VH: B1 VH with T9A, T16A, T30S, V79A, H82Q
# VL: B1 VL with A30G, G50A, T52A, T53S, S85N, L91I
# notes: mouse IgG, kappa light chain; also called clone #50; purified antibody 50
# B3: antibody 5 (antibody, V domains shown)
# VH: QVTLKESGPGILQPSQTLSLTCSFSGFSLSTFGMGVGWIRQPSGKGLEWLAHIWWDDEKYYNSALKSRLTISKATSKNQAFLKIANVDTADTATYYCARISNYGSNYWYFNVWGTGTTVTVSS
# VL: QVVLTQSPALMSASPGEKVTMTCSAGSSVSCMYWYQQKPGSSPRVLIYDTSNLASGVPARFTGSGSGTSYSLTISRMEAEDAASYYCQQWNSYPLTFGAGTKLELK
# notes: mouse IgG, kappa light chain; also called clone #5; purified antibody 5
# B4: antibody 42 (antibody, V domains shown)
# VH: B3 VH with F24L, M34R, S63P, A74D, A80V, K83R, S101Q, N111D
# VL: LIVLTQSPAIMSASPGEKVTMTCGATSRISYMFWYQQKPGSSPRVLIYDTSNLASGVPVRFSGSGSGTSYSLTISRVEAEDVATYYCQQWNSYPLTFGAGTKLELK
# notes: mouse IgG, kappa light chain; also called clone #42; purified antibody 42
# B5: antibody 43 (antibody, V domains shown)
# VH: B3 VH with T3A, P42S, H52N, E58D, S63P, A74D, T75A, S101G, N111D
# VL: B4 VL with L1Q, K18R, G24S, T26N, F33Y, V45L, V77M, V82A, Y86N, N91S
# notes: mouse IgG, kappa light chain; also called clone #43; purified antibody 43
# B6: antibody 16 (antibody, V domains shown)
# VH: QVTLKESGPGILQPSQTLSLTCSFSGFSLSTFALGVGWIRQPSGRGLEWLAHIWWDDDKYYNPALKSRLTISKDTSKNHVFLKIANVDTADTATYYCARITTYYYGMDYWGQGTSVTVSS
# VL: DIVLSQSPATLSVTPGDSVSLFCRASQSIGNHLHWYQQESHASPRLLIKYASQSISGIPSRFSGSGSGTDFTLSINSVETEDFGMYFCQQSYNWPLTFGAGTKLELK
# notes: mouse IgG, kappa light chain; also called clone #16; purified antibody 16
# B7: antibody 3 (antibody, V domains shown)
# VH: QVTLKESGPGILQPSQTLSLTCSFSGFSLTTFAMGIGWVRQPSGKGLEWLAHIWWDGEKYNNPVLKSRLTISKDTSKNQVFLRIANVDTPDTATYYCARISSIYYIIDNWGQGTSVTVSS
# VL: B6 VL with S5T, D17H, F22S, G30S, H32N, Q38K, E39K, A42E, A51V
# notes: mouse IgG, kappa light chain; also called clone #3; purified antibody 3
# Legend:
# hiR2-FL-A560S-T7 = target: T1, hiR2-FL-A560S-T7; assay: FACS, MEF-DKO cells, 3 µg/ml
# hiR2-FL-K536A-T7 = target: T2, hiR2-FL-K536A-T7; assay: FACS on MEF-DKO cells expressing the variant, 3 µg/ml antibody
# In short: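 Flow cytometry read-out of binding to variant-expressing cells after two-step staining on ice: 1 h with antibody at 3 μg/ml, then 1 h with PE-labelled goat anti-mouse IgG F(ab′)2 diluted 1:100. Controls received FACS buffer without primary antibody.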
Binder,loss of binding vs wild type (hiR2-FL-A560S-T7) [%],loss of binding vs wild type (hiR2-FL-K536A-T7) [%]
B1,≥ 30,≥ 30
B2,≥ 30,–
B3,–,≥ 95
B4,≥ 30,–
B5,–,≥ 60
B6,–,≥ 60
B7,–,≥ 60
